Assay: soluble on expression in E. coli; label from the status in PepcDB or PDB records

Sequence | soluble on expression in E. coli
SNVNIDSEQLFTEEKPKDYAQPEVLCHTFELLSNLHKLLPNRTVEVLHSYRSEEDKRKCEKPEFSGIEKILARHQLPKEINLSPKPSHVPSWKRKIINNISGNWKKCRLWQKSIYEPPMGTIIVRWTKKNLQPSEDLKSVIQRLSALGPIISVTPCGRESAVVVFRDAASACKAVSAFQTMSADSMFHCSWQHRFMSKNKTWSRRYPSKIHAEKKEKHP | soluble
MQEGYREYRDIHARLNLPLLETGALVAAWSDEDLARLPAIVEQAHGNGVDDVRQVGRDEVLALEPQLAGNVLGAVRVPGEHLVDPWSAPLAYLQQALAHGAEACFDVEVLDGAFDGGEWLLHTRRGDLRASQVINCAGLFGDQLEQRLLGAASFAIHPRKGQFVVFDKAAAALLRHILLPVPNERTKGVVFTRTVFGNLLAGPTAEEQDDREQARVDSDTLQRLIDAAVERIPGLRGMPVTATYAGLRPASEKKEYRIRQVDGRNWISVGGIRSTGLTAALGIARHVYRLYQGERFHEAVREPLWPQVPNLAEHLPRDWQRPGYDEIVCHCEMVTRREILAALEGPLPAGDFGGLKRRTRACMGRCQGFYCNARVAELSAGRLAQPLATGSCHEHH | not soluble
MAHHHHHHMPRPPQRIRAQSEGVVGRWYTNYWTLHSVRYQCQLAGVEWQFGERQRPRTNYDEPHMYTDFEETKAIRDYRSRWINVNRSLVGMSRRMKESEEEARYLHFKKVQDTFWSNRKVLVNRIKSMHNQGTLQSAKDLPIKTINIKAFLAE | soluble
MGSDKIHHHHHHMPFDPKIRGPLDVRPLLQLMSAGSWQVELAHERDCHLVIWITRGQGRVLLDGQCRGFGPHTALCIPARTLFSLELGRQCIGQVLRIGEDIPCGLPETPMQIRINDMQEQGRINALFDAALREQQVADDHTAKAITSYADLVGIHLQRLWVRAPENRKPTAARRLCRAYCARLAQDAEGAFNMAGHASELGVTPTHLTRVCKQETGKTAAALLTERQLHAARSLLASTRLPMRDIAQSLGFGSAAYFTRFITQHTGSTPSDLRKKAHGAQLASGRNP | not soluble
MGSDKIHHHHHHMSANRLPVTVVTGFLGSGKTTLLRHLLREGNQRLAVVVNEFGTVGLDGDLLKNCGLCPDDEVDERIVELNNGCLCCTVQEDFLPAMEALLLRSNQLDGIIIETSGLALPKPLLQALNWPAIRNKVFINGVVTLVDGYALSNGSPVSDLKSINEQMTNDNSIDHITPIDELFRDQLISADLVLVSRSDLLSAKDFLFVEEEVKKRGNSNANVLPISNGIIEPSVILGLCKEQNNIYRLDQNNQNQNQNQNHDHDHDHDHDHDHVDVISDHLRMETPIDQDVLREMFLRLVPEYQILRVKGKCWIEGKALPLQIQMVGPRFNSWFEAANENAWQPRQSGIDIVFLSLREGVKEAVVNSLCISTRIK | not soluble
MHSLYLGVVKVMAKIILVYANCVNSTAKGDFALAGQIAKDLVREKTSDDIDVVLTSTLDGIARFESLYGKAVDGRVIIEGTSVGLCALELFESVDNEVVAFIEANRCKYAPSDILKRVLSPDSKFLFIGAANQKAIATGDKFTKSWLYISHKGDQPNVYEHFDEDDSLIQSVGLGDDRLGLPSLPKVDELPEMNSTQSQKIPSGEYGFMYLAAVHGIDDVYLMNQYMSLTEMGQYVLVGEYAKQSKEVQMVLHSLQYKGSSVSLTMPQIFFHDSVDNCLMRNMVSKSSGPLVVSTGVMSSIEAMQDGKLTYYQTMSNNTQFVASYLIAVKSICSSDTTLFGSMPKLIIDLSNLLFAEKPLKESQMKEIKSLLGMSSVTSRLGEMNKRIIAKANGTVAGELLSFIGKPKTTQSHKQCISVCMSLRKSGETTSPIFDQALRRAAAWGRLFELKVLIASMSTSDLNKKDKTGNQYTALHWAVMQGHLDCARLLVKSGASVDIQDKSGKSPLHYAIKRGDKETIKLLVQAGASLEIMDDSGAKPCDGSESWVPEYIKSCYEKSGHKSSSLF | not soluble
MGSDKIHHHHHHMQPTYLPWMGYFDLIDIADKFVFLDNVQLERSGWQVRNRIRSSQGELMLRVAIATPKRFDETLIHQTQFVTGHPWRKKHLKSIQMNYQKAPYFAQVYPLLESLYQKDETSLSQFNISVINALCTFMGINTPRMLASELVDIEGIKDARLTSICKHLDADQYLSPLGAMAYIEQESSGGDLGENGIDVFYHQFVHPQYTQVYDGFISHLSIIDALFNLGPQNTVTLIRQFRQAPINYTSLPR | not soluble
MFRNNYDGDTVTFSPTGRLFQVEYALEAIKQGSVTVGLRSNTHAVLVALKRNADELSSYQKKIIKCDEHMGLSLAGLAPDARVLSNYLRQQCNYSSLVFNRKLAVERAGHLLCDKAQKNTQSYGGRPYGVGLLIIGYDKSGAHLLEFQPSGNVTELYGTAIGARSQGAKTYLERTLDTFIKIDGNPDELIKAGVEAISQSLRDESLTVDNLSIAIVGKDTPFTIYDGEAVAKYI | soluble
MSLRKIKIKEIVCIIGLLGTLTAHSQNTVWQIGNKDKSAKEFKFYKNDYRNYINDVYLYEVGRNHSADFPYFLPGPSDAWAGGISGQAVIGFSLAEAPSPTTQIQLRLLFAETHPSSPPRLEVRLNSFEKSIQTPKGTNPEYLDTKETTSKELSVTLDIPADEFRAGNNTLTIRNISGSWVAFDQIKLTSDSPLQTNNLTTKASLVSSAFSPVLVVGKKKELRQPVKIKAVNWHHKKRPVELQVGNFPPERYVLSPGINNIETSIPEVTAPCELPIILKEQGKTVSKINEKATPVKKWTVYLVQHTHTDIGYTKPQTEILSEHLRYIDYAIEYCEQTKDYTNDAKFRWTCESAWAVDEYLKNRPEEQVNKLKKYIAEGQIEVASMYFNMSEIVDENSFKTFLQPVKEFRKHGIPSALAMQNDVNGIAWCLADYLPDLGIKYLWMGEHHYKSQVPFNMPTVFQWESPSGKPILTYRADHYNTGNFWGIEQGDIQKTEPKLLHYLSELERKHYPFDAVGVQYSGYFTDNSPPSIIECKLIREWNEKYAYPKLRSATASEFMDYVTERYGDKIPAYRAAYPDWWTDGFGSAARETAASRKTHSDMTAVEGLLSMAVLKDKCLPQATHQQIEHIHESLLFYDEHTFGASESVSDPLCENSQVQWGEKSAYAWEAVKRTQMLYETSVGLLQGDLRRGKNPTLTIFNTLNWKRSEMLTVYIDFEVIPRNQFFEITDFQGHSLKVQPIRYRREGCYYAIFAEDIPPMGYKTFEIVFKQPSTDTGTITINNASIENHFYKLQLNPDKGTIQSLYDKELNCELVDSSSPWELGAFIYEKLGNRDQLAQYRLDDYNRTGLSECRIIDSSNGPIYQRILLQGKSPGTDEAFGVNLEIKLYHDTKRIELEYAIKRLPETDPSGIYVAFPFQLPEGKLAFDVQGGTVISGKNQLEGTSTDWNTVQNFVSVQNEGHHHHHH | not soluble
AAGTAKGHNPTEFPTIYDASSAPTAANTTVGIITIGGVSQTLQDLQQFTSANGLASVNTQTIQTGSSNGDYSDDQQGQGEWDLDSQSIVGSAGGAVQQLLFYMADQSASGNTGLTQAFNQAVSDNVAKVINVSLGWCEADANADGTLQAEDRIFATAAAQGQTFSVSSGDEGVYECNNRGYPDGSTYSVSWPASSPNVIAVGGTTLYTTSAGAYSNETVWNEGLDSNGKLWATGGGYSVYESKPSWQSVVSGTPGRRLLPDISFDAAQGTGALIYNYGQLQQIGGTSLASPIFVGLWARLQSANSNSLGFPAASFYSAISSTPSLVHDVKSGNNGYGGYGYNAGTGWDYPTGWGSLDIAKLSAYIRSNGFGH | soluble
GPGSMSLKVNILGHEFSNPFMNAAGVLCTTEEDLRRMTESESGSLIGKSCTLAPRTGNPEPRYFGLPLGSINSMGLPNLGVDFYLSYAAQTHDYSRKPLFLSMSGLSVEESVEMVKKLAPITKEKGTILELNLSCPNVPGKPQVGYDFDTTRTYLQKVSEAYGLPFGVKMPPYFDIAHFDMAAAVLNDFPLVKFITCVNSIGNGLVIDPANETVVIKPKQGFGGLGGKYVLPTALANVNAFFRRCPDKLVFGCGGVYSGEEAFLHILAGASMVQVGTALHDEGPIIFARLNKELQEIMTNKGYKTLDEFRGRVKTMD | soluble
MSTIELNKRQEHILQIVKENGPITGEHIAEKLNLTRATLRPDLAILTMSGFLEARPRVGYFYTGKTGTQLLADKLKKLQVKDFQSIPVVIHENVSVYDAICTMFLEDVGTLFVVDRDAVLVGVLSRKDLLRASIGQQELTSVPVHIIMTRMPNITVCRREDYVMDIAKHLIEKQIDALPVIKDTDKGFEVIGRVTKTNMTKILVSLSENEILAAAAAALEHHHHHH | soluble
RPAIRKRLLKPKVLDSSPRALVGHRAEVLEDVGATSGQVRLDGSIWSARSMDPTHTFAEGEIVSVIDIQGTTAIVWKEA | soluble
MSLDKIMNEAISPWMKGDGPDSDIVLSSRIRLARNFKQYQFSTMQNEEEAQKVQELFKKKFINKAVEPFGKFGLLKMNELTPLQRRVLVEKHLISPNLAGTEYGACLLSESEHISVMLNEEDHIRIQCLFPGLQLSKALQSANQIDNWIEKEVEYAFDESLGYITSCPTNVGTGLRASVMIHLPGLVLTKRISRIIQVIQKLGLVVRGIYGEGSEALGNIFQVSNQMTLGKSEEDIIADLKSVMQQIIQQEKLARELIVQNSSIELEDKVYRSYGILANSRLIQSAEAATCLSDVRLGIDLGYIKGISRNILTELMVLTQPGILQQYAGGPLGPEERDYRRATLIRERLRIEKN | not soluble
MSDKLFSIVTISFNQAQFLREAVESVLAQKGGDIEYIVVDPGSTDGSREILAEYRSAIDHLILEADHGPGDGLNKGFARANGRYGYFLNSDDFLLPGAIDIMRTLWQRHKNTDVLLCGAWMVDENRRPQRELRPSPVTLEKLLDGEAKIVQQGMSFRMDLFRKVGGFNVGNRTCWDYELLCDFLAAGAAVTQSEARLAAFRIHSASISGGIGGELATKRYLADLDSVYERLTGQKKKPEQRRRAVRLSKRLGSPSHVLLRMRELLAPWTLELRWQADHERKSRRLEHHHHHH | not soluble
MSALQSLRPALRTAYGLAVRSDIDLPELEPLPGDGAADLTVRRGALPELPGEGGFRTRFAPERAELWWQTVGTFRVEPGLVTASPHAGVSEDLVAYPLLGSVLALALEQLGLFTIHASAVSVGGHGVVMMGDKGAGKSTTATAMIRAGHPLIADDIVAVDEGFRLRPGFPQVKLSPAAAAAFDAPDAVHRPTVPEVPEKCRVLLPERFARGATPLKRIYRLERAPAGTEPAVISVSPIEALPLALRFAYVTRFGAEALNGAAGARHLRQAAAIAASGVLHRVIVPHALDRLPEVVALIERDAGAAALEHHHHHH | not soluble
MGSDKIHHHHHHMVKVEIDEGSGFCFGVVTAIHKAEEELAKGVTLYCLGDIVHNSREVERLKEMGLITINHEEFKQLHNAKVLLRAHGEPPETYIIAKENNIEIIDATCPVVLRLQKRIKQEYMQEDLDEKQIVIYGKNGHAEVLGLVGQTTGKAIVIEKLDEARRLDFSKSIRLYSQTTKSLDEFWEIVEYIKEHISPDVTFEYYDTICRQVANRMPNLRKFAASHDLIFFVSGKKSSNGKMLFEECKKVNPNSHLIDSADEIDDSLLPGVNSIGVCGATSTPKWLMEEISEAIKAQIKRQ | not soluble
MFELDLRSRQPIYEQLIDKMKEMIVRELWQPHDQLPSVRTMAKQLMINPNTIQKAYRELERDGWIYSIPGKGSFVAPRSKEPNIEAIAAVREQFVRLVKEARFLGVTNEQLWQWIREGEERGGES | not soluble
MLERLKAITNLLKGALEQRSRAEEGYIREEKVKEAIELLEALERDIMEKELKLAKEALEKFDSNRKFYYLVGKLYVEVSKEEAQKLIEDELKMFGGEGK | not soluble
GMPHVHVSTDNSLLDIGLIHRTLSQDTDWAKDIPLALVQRAIDHSLCFGGFVDGRQVAFARVISDYATFAYLGDVFVLPEHRGRGYSKALMDAVMAHPDLQGLRRFSLATSDAHGLYARYGFTPPLFPQSLMERYVPGLYST | soluble

From the DeepSol protein solubility set
